The text below walks through data of the supplement of paper PMC9112550, “Optimization of the antimicrobial peptide Bac7 by deep mutational scanning” (BMC Biology, 2022).

In this data set the test system is Escherichia coli TOP10. Kind of data set: shrunken log2 fold change of peptide-encoding DNA abundance (4.5 h post-induction vs induction); higher = less antimicrobial activity (less host growth inhibition). Conditions: time post-induction: 4.5 h; library: site-saturation at positions 5, 18, 19, 20.
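Note: peptides expressed intracellularly from a pBAD plasmid library in pooled LB shake-flask culture, induced with 0.3% L-arabinose, DNA abundance read by NGS, three biological replicates, DESeq2 with apeglm shrinkage.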

For the sequence RRIRERPPRLPRPRPRPHVAPRP, the “shrunken log2 fold change” value came to 0.0131.

In the case of RRIRARPPRLPRPRPRPSHTPRP, the “shrunken log2 fold change” value was 0.162.

In the case of RRIRWRPPRLPRPRPRPNIHPRP, the “shrunken log2 fold change” value was -0.392.

For the sequence RRIRPRPPRLPRPRPRPWMLPRP, the “shrunken log2 fold change” value was -0.168.

As for RRIRSRPPRLPRPRPRPIFLPRP, the “shrunken log2 fold change” value is -0.335.

As to RRIRPRPPRLPRPRPRPENRPRP, the “shrunken log2 fold change” value amounted to 0.0972.

For RRIRLRPPRLPRPRPRPQSWPRP, the “shrunken log2 fold change” value is -0.0792.

For the sequence RRIRVRPPRLPRPRPRPSYLPRP, the “shrunken log2 fold change” value was 0.753.

Regarding RRIRLRPPRLPRPRPRPRCVPRP, the “shrunken log2 fold change” value turned out to be 0.0662.

Regarding RRIRQRPPRLPRPRPRPPCKPRP, the “shrunken log2 fold change” value was found to be 0.0303.

Regarding RRIRCRPPRLPRPRPRPFKCPRP, the “shrunken log2 fold change” value is -0.232.

For the sequence RRIRFRPPRLPRPRPRPNCPPRP, the “shrunken log2 fold change” value stood at 0.0451.

For the sequence RRIRQRPPRLPRPRPRPQMTPRP, the “shrunken log2 fold change” value was -0.106.

RRIRERPPRLPRPRPRPSETPRP: the “shrunken log2 fold change” value is -0.428.

Turning to RRIRVRPPRLPRPRPRPEANPRP, the “shrunken log2 fold change” value is -0.141.

As for RRIRMRPPRLPRPRPRPFEAPRP, the “shrunken log2 fold change” value amounted to 0.655.

On to RRIRKRPPRLPRPRPRPNYGPRP, for which the “shrunken log2 fold change” value was -0.226.

For the sequence RRIRYRPPRLPRPRPRPKRDPRP, the “shrunken log2 fold change” value is -0.0103.

In the case of RRIRKRPPRLPRPRPRPDHQPRP, the “shrunken log2 fold change” value was -0.0497.

Turning to RRIRTRPPRLPRPRPRPKGPPRP, the “shrunken log2 fold change” value is 0.0618.

For RRIRHRPPRLPRPRPRPVCCPRP, the “shrunken log2 fold change” value is -0.0885.

As for RRIRERPPRLPRPRPRPTTLPRP, the “shrunken log2 fold change” value was -0.325.

With RRIRYRPPRLPRPRPRPGRQPRP, the “shrunken log2 fold change” value was -0.031.

Turning to RRIRFRPPRLPRPRPRPDWTPRP, the “shrunken log2 fold change” value turned out to be 0.039.

Consider RRIRSRPPRLPRPRPRPTRMPRP, for which the “shrunken log2 fold change” value worked out at 1.03.

As to RRIRDRPPRLPRPRPRPNRYPRP, the “shrunken log2 fold change” value is -0.0973.

Turning to RRIRSRPPRLPRPRPRPNGWPRP, the “shrunken log2 fold change” value is 0.623.

Consider RRIRRRPPRLPRPRPRPHEIPRP, for which the “shrunken log2 fold change” value is -0.0745.

Turning to RRIRTRPPRLPRPRPRPLDGPRP, the “shrunken log2 fold change” value was 0.0872.

RRIRSRPPRLPRPRPRPDTSPRP: the “shrunken log2 fold change” value was -0.0998.

RRIRERPPRLPRPRPRPFIIPRP: the “shrunken log2 fold change” value is -0.769.

Regarding RRIRVRPPRLPRPRPRPFHFPRP, the “shrunken log2 fold change” value is -0.238.

With RRIRWRPPRLPRPRPRPDYTPRP, the “shrunken log2 fold change” value was -0.0601.

Take RRIRGRPPRLPRPRPRPCSCPRP: the “shrunken log2 fold change” value was 0.105.

In the case of RRIRHRPPRLPRPRPRPHQIPRP, the “shrunken log2 fold change” value turned out to be 0.0658.

With RRIRTRPPRLPRPRPRPIVLPRP, the “shrunken log2 fold change” value was -0.145.

Turning to RRIRLRPPRLPRPRPRPSYLPRP, the “shrunken log2 fold change” value is -0.659.

Turning to RRIRQRPPRLPRPRPRPERQPRP, the “shrunken log2 fold change” value was -0.0407.

For RRIRWRPPRLPRPRPRPLWEPRP, the “shrunken log2 fold change” value is 0.0357.

As to RRIRERPPRLPRPRPRPQRNPRP, the “shrunken log2 fold change” value is -0.214.

Take RRIRLRPPRLPRPRPRPHFWPRP: the “shrunken log2 fold change” value stood at 0.144.

For the sequence RRIRMRPPRLPRPRPRPGCDPRP, the “shrunken log2 fold change” value amounted to 1.85.

As for RRIRVRPPRLPRPRPRPFGWPRP, the “shrunken log2 fold change” value is 0.372.

As to RRIRQRPPRLPRPRPRPEDDPRP, the “shrunken log2 fold change” value is -0.14.

Regarding RRIRERPPRLPRPRPRPHQMPRP, the “shrunken log2 fold change” value is -0.0399.

For the sequence RRIRTRPPRLPRPRPRPMMKPRP, the “shrunken log2 fold change” value was -0.11.

In the case of RRIRNRPPRLPRPRPRPANHPRP, the “shrunken log2 fold change” value is -0.208.

RRIRHRPPRLPRPRPRPAYMPRP: the “shrunken log2 fold change” value was 0.0834.

Take RRIRCRPPRLPRPRPRPGREPRP: the “shrunken log2 fold change” value was found to be 2.28.

On to RRIRPRPPRLPRPRPRPNIKPRP, for which the “shrunken log2 fold change” value is -0.322.

Take RRIRKRPPRLPRPRPRPKRDPRP: the “shrunken log2 fold change” value was determined as 0.539.

Take RRIRLRPPRLPRPRPRPSVHPRP: the “shrunken log2 fold change” value is -0.61.

RRIRFRPPRLPRPRPRPANSPRP: the “shrunken log2 fold change” value is -0.448.

As for RRIRRRPPRLPRPRPRPHRWPRP, the “shrunken log2 fold change” value worked out at 0.409.

RRIRRRPPRLPRPRPRPAPAPRP: the “shrunken log2 fold change” value worked out at 1.1.

In the case of RRIRCRPPRLPRPRPRPDHAPRP, the “shrunken log2 fold change” value was -0.0323.

Regarding RRIRARPPRLPRPRPRPFSIPRP, the “shrunken log2 fold change” value was 0.111.

With RRIRDRPPRLPRPRPRPQEEPRP, the “shrunken log2 fold change” value was -0.0321.

For RRIRKRPPRLPRPRPRPIWHPRP, the “shrunken log2 fold change” value was found to be 0.248.

Take RRIRNRPPRLPRPRPRPFQWPRP: the “shrunken log2 fold change” value was -0.212.

Regarding RRIRRRPPRLPRPRPRPTSGPRP, the “shrunken log2 fold change” value is 0.252.

Take RRIRYRPPRLPRPRPRPHCSPRP: the “shrunken log2 fold change” value was -0.239.

RRIRPRPPRLPRPRPRPMILPRP: the “shrunken log2 fold change” value is -0.064.

Regarding RRIRMRPPRLPRPRPRPDIPPRP, the “shrunken log2 fold change” value was -0.0804.

For RRIRMRPPRLPRPRPRPHIRPRP, the “shrunken log2 fold change” value is -0.0162.

For RRIRYRPPRLPRPRPRPCYMPRP, the “shrunken log2 fold change” value was 0.0232.

Regarding RRIRDRPPRLPRPRPRPVRTPRP, the “shrunken log2 fold change” value was -0.176.

Turning to RRIRMRPPRLPRPRPRPCMLPRP, the “shrunken log2 fold change” value stood at 0.303.

For RRIRMRPPRLPRPRPRPHQQPRP, the “shrunken log2 fold change” value came to 0.107.

In the case of RRIRARPPRLPRPRPRPVILPRP, the “shrunken log2 fold change” value is -0.0803.

Regarding RRIRIRPPRLPRPRPRPNGFPRP, the “shrunken log2 fold change” value was -0.114.

With RRIRERPPRLPRPRPRPLFGPRP, the “shrunken log2 fold change” value was -0.0794.

In the case of RRIRMRPPRLPRPRPRPMIRPRP, the “shrunken log2 fold change” value amounted to 0.00211.

RRIRTRPPRLPRPRPRPVLIPRP: the “shrunken log2 fold change” value was 0.233.

As for RRIRSRPPRLPRPRPRPGAFPRP, the “shrunken log2 fold change” value worked out at 0.0905.

Take RRIRMRPPRLPRPRPRPTTNPRP: the “shrunken log2 fold change” value is 0.403.

Turning to RRIRARPPRLPRPRPRPIMDPRP, the “shrunken log2 fold change” value is -0.0229.

For RRIRTRPPRLPRPRPRPYSCPRP, the “shrunken log2 fold change” value is -0.0718.

For the sequence RRIRTRPPRLPRPRPRPRGQPRP, the “shrunken log2 fold change” value is 0.411.

For RRIRVRPPRLPRPRPRPRKRPRP, the “shrunken log2 fold change” value amounted to 0.572.

On to RRIRWRPPRLPRPRPRPAGGPRP, for which the “shrunken log2 fold change” value came to 0.379.

Consider RRIRVRPPRLPRPRPRPEVHPRP, for which the “shrunken log2 fold change” value was -0.0892.

Consider RRIRYRPPRLPRPRPRPPNCPRP, for which the “shrunken log2 fold change” value was -0.236.

Regarding RRIRNRPPRLPRPRPRPYLMPRP, the “shrunken log2 fold change” value is -0.287.

For RRIRDRPPRLPRPRPRPKESPRP, the “shrunken log2 fold change” value came out at 0.277.

RRIRIRPPRLPRPRPRPYHHPRP: the “shrunken log2 fold change” value is -0.0849.

For the sequence RRIRARPPRLPRPRPRPSENPRP, the “shrunken log2 fold change” value came out at 0.182.

Consider RRIRQRPPRLPRPRPRPSEWPRP, for which the “shrunken log2 fold change” value was -0.0519.

Consider RRIRNRPPRLPRPRPRPWYKPRP, for which the “shrunken log2 fold change” value is -0.00149.

RRIRMRPPRLPRPRPRPDNVPRP: the “shrunken log2 fold change” value was -0.0207.

As for RRIRLRPPRLPRPRPRPVYFPRP, the “shrunken log2 fold change” value is -0.455.

In the case of RRIRIRPPRLPRPRPRPTGHPRP, the “shrunken log2 fold change” value is -0.116.

In the case of RRIRDRPPRLPRPRPRPEIPPRP, the “shrunken log2 fold change” value is -0.0405.

In the case of RRIRVRPPRLPRPRPRPCPQPRP, the “shrunken log2 fold change” value is -0.0828.

Regarding RRIRRRPPRLPRPRPRPWVKPRP, the “shrunken log2 fold change” value came to 0.0557.

In the case of RRIRMRPPRLPRPRPRPMQPPRP, the “shrunken log2 fold change” value was -0.000921.

Regarding RRIRYRPPRLPRPRPRPCDWPRP, the “shrunken log2 fold change” value is -0.0122.

As to RRIRLRPPRLPRPRPRPCHTPRP, the “shrunken log2 fold change” value is -0.173.

Turning to RRIRVRPPRLPRPRPRPECRPRP, the “shrunken log2 fold change” value worked out at 0.238.

Take RRIRYRPPRLPRPRPRPWSEPRP: the “shrunken log2 fold change” value was -0.117.

For RRIRQRPPRLPRPRPRPDHWPRP, the “shrunken log2 fold change” value is -0.368.

Take RRIRSRPPRLPRPRPRPCYTPRP: the “shrunken log2 fold change” value is -0.0751.

Consider RRIRIRPPRLPRPRPRPRFIPRP, for which the “shrunken log2 fold change” value was -0.636.

Turning to RRIRGRPPRLPRPRPRPSEDPRP, the “shrunken log2 fold change” value was 0.71.

Consider RRIRARPPRLPRPRPRPNFLPRP, for which the “shrunken log2 fold change” value amounted to 0.0215.

Consider RRIRKRPPRLPRPRPRPTINPRP, for which the “shrunken log2 fold change” value is -0.184.

For RRIRFRPPRLPRPRPRPPRMPRP, the “shrunken log2 fold change” value was found to be 0.332.

Regarding RRIRQRPPRLPRPRPRPHWLPRP, the “shrunken log2 fold change” value was -0.222.

With RRIRERPPRLPRPRPRPPTVPRP, the “shrunken log2 fold change” value was 0.166.

Regarding RRIRRRPPRLPRPRPRPFLEPRP, the “shrunken log2 fold change” value worked out at 0.0277.

Regarding RRIRDRPPRLPRPRPRPTCCPRP, the “shrunken log2 fold change” value was found to be 0.104.

Regarding RRIRDRPPRLPRPRPRPPNQPRP, the “shrunken log2 fold change” value worked out at 0.317.

As to RRIRIRPPRLPRPRPRPSCYPRP, the “shrunken log2 fold change” value was -0.392.

For the sequence RRIRYRPPRLPRPRPRPKCVPRP, the “shrunken log2 fold change” value came out at 0.0122.

As to RRIRYRPPRLPRPRPRPYFGPRP, the “shrunken log2 fold change” value was 0.0143.

Regarding RRIRCRPPRLPRPRPRPDAPPRP, the “shrunken log2 fold change” value is 0.515.

For the sequence RRIRARPPRLPRPRPRPWYSPRP, the “shrunken log2 fold change” value is -0.43.

Consider RRIRDRPPRLPRPRPRPTCTPRP, for which the “shrunken log2 fold change” value amounted to 0.53.

Consider RRIRWRPPRLPRPRPRPPCIPRP, for which the “shrunken log2 fold change” value is 0.0939.

As for RRIRTRPPRLPRPRPRPSAFPRP, the “shrunken log2 fold change” value is -0.0245.

As for RRIRERPPRLPRPRPRPNWPPRP, the “shrunken log2 fold change” value was found to be 0.202.

For the sequence RRIRNRPPRLPRPRPRPILNPRP, the “shrunken log2 fold change” value is -0.353.

Consider RRIRSRPPRLPRPRPRPDFIPRP, for which the “shrunken log2 fold change” value stood at 0.00191.

As for RRIRVRPPRLPRPRPRPVYPPRP, the “shrunken log2 fold change” value is -0.389.

As to RRIRLRPPRLPRPRPRPGTVPRP, the “shrunken log2 fold change” value was -0.0516.
